Legend:
[1] = biological target: T1, 4H1930-AA; assay: two-hybrid library CCmax; details: mean of both orientations;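 also: natural log of median RNA to DNA barcode read ratio; higher means stronger binding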
T1 chain: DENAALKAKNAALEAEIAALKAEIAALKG

[2] = biological target: T2, 4H2165-AA; assay: two-hybrid library CCmax; details: mean of both orientations;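 also: natural log of median RNA to DNA barcode read ratio; higher means stronger binding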
T2 chain: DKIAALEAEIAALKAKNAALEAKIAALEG

[3] = biological target: T3, 4H3001-AA; assay: two-hybrid library CCmax; details: mean of both orientations;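 also: natural log of median RNA to DNA barcode read ratio; higher means stronger binding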
T3 chain: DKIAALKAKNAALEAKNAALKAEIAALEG

[4] = biological target: 4H_GCN4; assay: two-hybrid library CCmax;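 also: natural log of median RNA to DNA barcode read ratio; higher means stronger binding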
Chain of 4H_GCN4 (chain, as listed by the source): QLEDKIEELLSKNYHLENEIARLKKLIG

[5] = biological target: T4, 4H2343-AA; assay: two-hybrid library CCmax; details: mean of both orientations;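 also: natural log of median RNA to DNA barcode read ratio; higher means stronger binding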
T4 chain: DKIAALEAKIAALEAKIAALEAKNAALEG

[6] = biological target: T5, 4H2931-AA; assay: two-hybrid library CCmax; details: mean of both orientations;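 also: natural log of median RNA to DNA barcode read ratio; higher means stronger binding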
T5 chain: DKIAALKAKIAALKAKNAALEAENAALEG

[7] = biological target: T6, 4H_BCR; assay: two-hybrid library CCmax; details: mean of both orientations
T6 chain: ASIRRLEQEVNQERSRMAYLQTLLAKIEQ

[8] = biological target: T7, 4H2592-AA; assay: two-hybrid library CCmax; details: mean of both orientations
T7 chain: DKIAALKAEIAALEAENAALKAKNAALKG

[9] = biological target: T8, 4H347-AA; assay: two-hybrid library CCmax; details: mean of both orientations
T8 chain: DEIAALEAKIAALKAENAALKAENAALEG

[10] = biological target: T9, 4H406-AA; assay: two-hybrid library CCmax; details: mean of both orientations
T9 chain: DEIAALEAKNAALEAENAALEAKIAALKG

[11] = biological target: T10, 4H2253-AA; assay: two-hybrid library CCmax; details: mean of both orientations
T10 chain: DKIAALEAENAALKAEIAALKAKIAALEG

[12] = biological target: T11, 4H249-AA; assay: two-hybrid library CCmax; details: mean of both orientations
T11 chain: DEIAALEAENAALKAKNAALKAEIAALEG

[13] = biological target: T12, 4H2774-AA; assay: two-hybrid library CCmax; details: mean of both orientations
T12 chain: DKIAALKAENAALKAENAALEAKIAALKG

[14] = biological target: T13, 4H1828-AA; assay: two-hybrid library CCmax
T13 chain: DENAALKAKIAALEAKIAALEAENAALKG

[15] = biological target: T14, 4H3015-AA; assay: two-hybrid library CCmax; details: mean of both orientations
T14 chain: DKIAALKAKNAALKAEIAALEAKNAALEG

[16] = biological target: T15, 4H2330-AA; assay: two-hybrid library CCmax; details: mean of both orientations
T15 chain: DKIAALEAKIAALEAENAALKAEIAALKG

[17] = biological target: T16, 4H452-AA; assay: two-hybrid library CCmax; details: mean of both orientations
T16 chain: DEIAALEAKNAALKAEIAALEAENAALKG

[18] = biological target: T17, 4H3073-AA; assay: two-hybrid library CCmax; details: mean of both orientations
T17 chain: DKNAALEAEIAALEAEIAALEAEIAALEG

[19] = biological target: T18, 4H_APH; assay: two-hybrid library CCmax
T18 chain: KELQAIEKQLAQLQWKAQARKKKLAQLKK

[20] = biological target: T19, 4H2466-AA; assay: two-hybrid library CCmax; details: mean of both orientations
T19 chain: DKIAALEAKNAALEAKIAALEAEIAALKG

[21] = biological target: GCN2_T; assay: two-hybrid library CCmax
[22] = biological target: T20, 4H2732-AA; assay: two-hybrid library CCmax; details: mean of both orientations
T20 chain: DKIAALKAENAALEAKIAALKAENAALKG

[23] = biological target: T21, 4H3438-AA; assay: two-hybrid library CCmax; details: mean of both orientations
T21 chain: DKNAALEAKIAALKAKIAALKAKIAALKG

[24] = biological target: T22, 4H56-AA; assay: two-hybrid library CCmax; details: mean of both orientations
T22 chain: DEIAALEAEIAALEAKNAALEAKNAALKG

[25] = biological target: T23, 4H2124-AA; assay: two-hybrid library CCmax; details: mean of both orientations
T23 chain: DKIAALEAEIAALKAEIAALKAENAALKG

[26] = biological target: T24, P8mS; assay: two-hybrid library CC1; details: mean of both orientations
T24 chain: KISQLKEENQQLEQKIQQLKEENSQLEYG

[27] = biological target: T25, P6; assay: two-hybrid library CC1; details: mean of both orientations
T25 chain: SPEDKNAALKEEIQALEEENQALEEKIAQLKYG

[28] = biological target: T26, P5SC2; assay: two-hybrid library CC1; details: mean of both orientations
T26 chain: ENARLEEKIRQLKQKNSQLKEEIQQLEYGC

[29] = biological target: T27, P4mS; assay: two-hybrid library CC1; details: mean of both orientations
T27 chain: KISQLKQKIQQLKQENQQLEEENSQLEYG

[30] = biological target: T28, P7mS; assay: two-hybrid library CC1; details: mean of both orientations
T28 chain: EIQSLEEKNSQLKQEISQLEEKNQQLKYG

[31] = biological target: T29, P5mS; assay: two-hybrid library CC1; details: mean of both orientations
T29 chain: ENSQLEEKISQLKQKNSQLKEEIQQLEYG

[32] = biological target: T30, P5; assay: two-hybrid library CC1; details: mean of both orientations
T30 chain: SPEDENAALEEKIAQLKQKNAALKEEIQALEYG

[33] = biological target: T31, P4; assay: two-hybrid library CC1
T31 chain: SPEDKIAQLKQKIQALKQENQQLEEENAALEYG

[34] = biological target: T32, P8; assay: two-hybrid library CC1; details: mean of both orientations
T32 chain: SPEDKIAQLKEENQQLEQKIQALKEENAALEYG

[35] = biological target: T33, P9; assay: two-hybrid library CC1; details: mean of both orientations
T33 chain: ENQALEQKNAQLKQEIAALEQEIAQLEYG

[36] = biological target: T34, P6mS; assay: two-hybrid library CC1; details: mean of both orientations
T34 chain: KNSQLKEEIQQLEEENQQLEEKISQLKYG

[37] = biological target: T35, P7; assay: two-hybrid library CC1; details: mean of both orientations
T35 chain: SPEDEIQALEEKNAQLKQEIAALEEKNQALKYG

[38] = biological target: T36, P6SC2; assay: two-hybrid library CC1; details: mean of both orientations
T36 chain: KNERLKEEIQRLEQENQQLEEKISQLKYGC

[39] = biological target: T37, P6SC1; assay: two-hybrid library CC1; details: mean of both orientations
T37 chain: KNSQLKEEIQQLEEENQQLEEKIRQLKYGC

[40] = biological target: T38, P5SC1; assay: two-hybrid library CC1; details: mean of both orientations
T38 chain: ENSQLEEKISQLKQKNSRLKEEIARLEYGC

DENAALKAKIAALEAKIAALEAENAALKG [4H1828-AA] showed an interaction score [1] of -1.5, an interaction score [2] of -1.37 and an interaction score [3] of -1.55. For the same binder, the interaction score [4] was -2.2, the interaction score [5] was -1.69 and the interaction score [6] was -2.02. For the same binder, the interaction score [7] was -2.28, the interaction score [8] was -0.581 and the interaction score [9] was -0.947. For the same binder, the interaction score [10] was -1.44, the interaction score [11] was -1.32 and the interaction score [12] was -1.5. It also gave an interaction score [13] of -1.37, an interaction score [14] of 1.34 and an interaction score [15] of -1.83. The interaction score [16] was -1.45, the interaction score [17] was -1.35 and the interaction score [18] was -1.08. The interaction score [19] was -1.13, the interaction score [20] was -1.4 and the interaction score [21] was -2.49. For the same binder, the interaction score [22] was -1.51, the interaction score [23] was -1.01 and the interaction score [24] was -1.03. For the same binder, the interaction score [25] was -1.65.

In the case of SPEDKIAQLKQKIQALKQENQQLEEENAALEYG [P4], the interaction score [26] is reported as -2.82, the interaction score [27] is reported as -2.83 and the interaction score [28] is reported as -2.74. It also gave an interaction score [29] of -2.91, an interaction score [30] of -2.77 and an interaction score [31] of -2.91. The interaction score [32] was -3.06, the interaction score [33] was -3 and the interaction score [34] was -2.99. For the same binder, the interaction score [35] was -2.29, the interaction score [36] was -2.85 and the interaction score [37] was -2.74. It also gave an interaction score [38] of -2.66, an interaction score [39] of -2.87 and an interaction score [40] of -2.83.

Reference: paper PMC10397247
